Target: the molecule itself
Assay: FRET or BRET

B1: hOCT2 tagged with CFP or YFP at the N terminus (natural protein)
chain: MPTTVDDVLEHGGEFHFFQKQMFFLLALLSATFAPIYVGIVFLGFTPDHRCRSPGVAELSLRCGWSPAEELNYTVPGPGPAGEASPRQCRRYEVDWNQSTFDCVDPLASLDTNRSRLPLGPCRDGWVYETPGSSIVTEFNLVCANSWMLDLFQSSVNVGFFIGSMSIGYIADRFGRKLCLLTTVLINAAAGVLMAISPTYTWMLIFRLIQGLVSKAGWLIGYILITEFVGRRYRRTVGIFYQVAYTVGLLVLAGVAYALPHWRWLQFTVSLPNFFFLLYYWCIPESPRWLISQNKNAEAMRIIKHIAKKNGKSLPASLQRLRLEEETGKKLNPSFLDLVRTPQIRKHTMILMYNWFTSSVLYQGLIMHMGLAGDNIYLDFFYSALVEFPAAFMIILTIDRIGRRYPWAASNMVAGAACLASVFIPGDLQWLKIIISCLGRMGITMAYEIVCLVNAELYPTFIRNLGVHICSSMCDIGGIITPFLVYRLTNIWLELPLMVFGVLGLVAGGLVLLLPETKGKALPETIEEAENMQRPRKNKEKMIYLQVQKLDIPLN
- NFRET: 0.176
